Test results reported in the Human Domainome abundance scans (Beltran et al. 2025).
± gives the uncertainty stated by the source.

B1: Histone-lysine N-methyltransferase SETD2, residues 2382 to 2430; numbered along this chain, Q9BYW2 (parent)
chain: SPPKPKTIVLPPNWKTARDPEGKIYYYHVITRQTQWDPPTWESPGDDAS

Variants of: B1
Experiment: abundance fitness (aPCA) (normalised: wild type 0, dead -1); higher = more abundant; growth selection in yeast, the domain comes from the species named
Conditions: Homo sapiens
P11S showed an abundance fitness of -0.453 ± 0.11.
Work on P11C yielded an abundance fitness of -0.694 ± 0.11.
Variant P11E has an abundance fitness of -0.5 ± 0.069.
For P11Q, the abundance fitness was -0.186 ± 0.084.
P11Y gave an abundance fitness of -0.666 ± 0.18.
P11V gave an abundance fitness of -0.689 ± 0.11.
For T7I, the abundance fitness was -0.212 ± 0.15.
In the case of T7S, the abundance fitness is reported as 0.105 ± 0.039.
For R32I, the abundance fitness was -0.997 ± 0.39.
Work on R32D yielded an abundance fitness of -0.027 ± 0.097.
Variant R32K has an abundance fitness of 0.13 ± 0.076.
With I24Y the abundance fitness was -0.336 ± 0.33.
Variant I24A has an abundance fitness of -0.253 ± 0.23.
P5Y showed an abundance fitness of -0.066 ± 0.098.
Variant P2G has an abundance fitness of 0.045 ± 0.035.
For P2F, the abundance fitness was 0.031 ± 0.14.
P2E gave an abundance fitness of -0.224 ± 0.082.
P2R gave an abundance fitness of -0.118 ± 0.062.
Work on P20I yielded an abundance fitness of -0.165 ± 0.045.
Variant A48R has an abundance fitness of 0.107 ± 0.057.
Work on A48L yielded an abundance fitness of -0.077 ± 0.056.
Work on D46H yielded an abundance fitness of 0.119 ± 0.1.
For K6E, the abundance fitness was -0.19 ± 0.062.
K6N showed an abundance fitness of 0.018 ± 0.085.
K6G gave an abundance fitness of 0.037 ± 0.053.
With K6S the abundance fitness was 0.103 ± 0.059.
P12E showed an abundance fitness of 0.105 ± 0.084.
Work on K23N yielded an abundance fitness of -0.563 ± 0.14.
With K23R the abundance fitness was 0.029 ± 0.034.
K23L showed an abundance fitness of -0.457 ± 0.035.
For K23Q, the abundance fitness was -0.28 ± 0.09.
A17P showed an abundance fitness of -0.747 ± 0.042.
Variant A17M has an abundance fitness of -0.024 ± 0.08.
In the case of A17T, the abundance fitness is reported as -0.217 ± 0.074.
For P3I, the abundance fitness was 0.115 ± 0.17.
P3R gave an abundance fitness of 0.274 ± 0.054.
P39G showed an abundance fitness of -1.04 ± 0.14.
For P39W, the abundance fitness was -0.987 ± 0.076.
I30R gave an abundance fitness of -0.018 ± 0.046.
I30G gave an abundance fitness of -0.313 ± 0.041.
For I30L, the abundance fitness was -0.087 ± 0.046.
In the case of E21P, the abundance fitness is reported as -0.989 ± 0.14.
With E21C the abundance fitness was -0.134 ± 0.11.
Variant E21H has an abundance fitness of -0.737 ± 0.28.
In the case of E21S, the abundance fitness is reported as 0.098 ± 0.039.
For E21Y, the abundance fitness was -0.552 ± 0.18.
In the case of Q35P, the abundance fitness is reported as -0.535 ± 0.17.
Work on Q35V yielded an abundance fitness of -0.212 ± 0.036.
H28C gave an abundance fitness of -0.792 ± 0.21.
For H28Q, the abundance fitness was -0.64 ± 0.18.
With H28R the abundance fitness was -1.03 ± 0.12.
Work on H28E yielded an abundance fitness of -0.689 ± 0.17.
With Y27S the abundance fitness was -0.433 ± 0.052.
In the case of Y27V, the abundance fitness is reported as -0.173 ± 0.049.
Y27C gave an abundance fitness of -0.543 ± 0.093.
For G45V, the abundance fitness was -0.177 ± 0.059.
Variant G45L has an abundance fitness of 0.076 ± 0.046.
G45W gave an abundance fitness of 0.026 ± 0.054.
With G45M the abundance fitness was -0.082 ± 0.063.
In the case of T31L, the abundance fitness is reported as -0.748 ± 0.099.
Work on T31N yielded an abundance fitness of -0.798 ± 0.23.
T31A showed an abundance fitness of -0.742 ± 0.11.
V9L gave an abundance fitness of -0.075 ± 0.046.
For V9Y, the abundance fitness was -0.362 ± 0.14.
With S43A the abundance fitness was -0.048 ± 0.041.
In the case of W36F, the abundance fitness is reported as 0.321 ± 0.062.
With W36I the abundance fitness was 0.139 ± 0.064.
In the case of W36H, the abundance fitness is reported as 0.33 ± 0.079.
Work on W36A yielded an abundance fitness of -0.239 ± 0.07.
I8E gave an abundance fitness of -0.096 ± 0.062.
In the case of I8Q, the abundance fitness is reported as -0.056 ± 0.065.
For W41F, the abundance fitness was 0.334 ± 0.092.
Work on K15H yielded an abundance fitness of -0.153 ± 0.41.
Work on E42G yielded an abundance fitness of -0.053 ± 0.047.
E42K gave an abundance fitness of -0.074 ± 0.035.
E42D showed an abundance fitness of -0.504 ± 0.17.
With T40R the abundance fitness was -0.019 ± 0.033.
With T40N the abundance fitness was 0.045 ± 0.1.
For Y25T, the abundance fitness was -0.73 ± 0.14.
Y25Q showed an abundance fitness of -0.454 ± 0.1.
Y25D showed an abundance fitness of -0.485 ± 0.11.
In the case of Y25N, the abundance fitness is reported as -0.911 ± 0.17.
Variant S1V has an abundance fitness of -0.252 ± 0.14.
S1F showed an abundance fitness of 0.246 ± 0.088.
